Assay [1] deals with a commercial source of HSPG. Nature of the assay: ELISA; capture antibody CSI 001-71 (anti-Pln.D1) coated, then rhPln.247 (1 ug/ml) or HSPG, then dilutions of rhBMP-2; retained BMP detected with anti-BMP antibodies; background subtracted; apparent Kd. A general note: In an ELISA, binding on a coated surface is turned into a signal by an enzyme label.
The target in assay [2] is a commercial source of HSPG. The assay is described as above. The source holds these as a separate data set.
The target of assay [3] is recombinant human perlecan domain 1 proteoglycan rhPln.247 (human) (UniProt P98160). The assay is described as above.
The target is the same in assay [4]. Nature of the assay: ELISA; rhPln.247 coated directly on polystyrene microtiter wells overnight at 4°C in PBS/N3 at about 1-2 ug/ml; rhBMP-2 or rhBMP-7 serially diluted; retained BMP detected with biotinylated anti-BMP antibodies; background without rhPln.247 subtracted; apparent Kd.
Assay [5] shares this target. The description is as above. The source holds these as a separate data set.

The values that follow come from article PMC3485628.

Where two headings read alike, the source gives them in different places.

Sequence of recombinant human perlecan domain 1 proteoglycan rhPln.247 (human) (P98160 22-247): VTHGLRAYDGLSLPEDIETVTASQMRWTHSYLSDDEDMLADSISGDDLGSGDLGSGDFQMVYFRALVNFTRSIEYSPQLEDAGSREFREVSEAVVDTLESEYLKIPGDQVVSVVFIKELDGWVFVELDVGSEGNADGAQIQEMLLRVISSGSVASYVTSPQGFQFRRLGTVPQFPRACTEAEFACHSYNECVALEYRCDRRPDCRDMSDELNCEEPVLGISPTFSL
Sequence of recombinant human bone morphogenetic protein-2 (P12643 283-396): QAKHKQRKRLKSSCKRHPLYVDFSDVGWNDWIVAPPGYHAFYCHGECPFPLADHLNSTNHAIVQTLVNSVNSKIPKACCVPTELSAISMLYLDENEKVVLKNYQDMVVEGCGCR

Take “recombinant human bone morphogenetic protein-2 (from UniProt P12643 283-396) (ligand)”: the Kd in assay [1] was 150 nM; in assay [2], 0.15 nM; in assay [3], 0.6 nM; in assay [4], 0.573 nM; in assay [5], 0.4 nM.
